Measurements from PMC7264160.

Biological target: Nascent polypeptide-associated complex (NAC) protein of Picrophilus torridus (Picrophilus torridus)
Experiment: SEC; HiPrep S-200 HR column; elution compared with protein standards run on this column

- stoichiometry N: 2
Substance: Nascent polypeptide-associated complex (NAC) protein of Picrophilus torridus (natural protein)
